Test results published in patent publication US20200317768A1 (published 2020).
Residue numbers refer to the chain shown, from its start.

Experiments:
[1] = molecular target: T1, cynomolgus monkey FcγRIIa1 extracellular domain, His-tagged (cynomolgus monkey); test: SPR (BIACORE), 25 C, antibody captured, FcgR as analyte; KD of SG1 divided by KD of variant;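 further: relative to parent M103205H795-SG1 carrying the SG1 human heavy chain constant region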
T1 construct: also called cyno FcγRIIa1; FcgRIIa1; not shown: C-terminal His-tag
T1 chain: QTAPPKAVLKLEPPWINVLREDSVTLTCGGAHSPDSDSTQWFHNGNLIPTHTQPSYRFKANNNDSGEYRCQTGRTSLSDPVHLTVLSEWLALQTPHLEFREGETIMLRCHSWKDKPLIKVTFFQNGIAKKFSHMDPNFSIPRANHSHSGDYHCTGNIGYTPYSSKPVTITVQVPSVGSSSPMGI
Experimental: (§1) The kinetic analysis of interactions between these antibodies and FcγR was carried out using BIACORE® T200 or BIACORE® 4000 (GE Healthcare). HBS-EP+ (GE Healthcare) was used as the running buffer, and the measurement temperature was set to 25° C. A chip produced by immobilizing Protein A. Protein A/G or mouse anti-human IgG kappa light chain (BD Biosciences) onto a Series S Sensor Chip CM4 or CM5 (GE Healthcare) by the amine-coupling method was used. […] After the measurement, the antibody captured on the chip was washed off by allowing reaction with 10 mM glycine-HCl, pH1.5 and 25 mM NaOH so that the chip was regenerated and used repeatedly. The sensorgrams obtained as measurement results were analyzed by the 1:1 Langmuir binding model using the BIACORE® Evaluation Software to calculate the binding rate constant ka (L/mol/s) and dissociation rate constant kd (l/s), and the dissociation constant KD (mol/L) was calculated from these values. […] Regarding such interactions, KD values were calculated using the following 1:1 binding model described in BIACORE® T100 Software Handbook BR1006-48 Edition AE.

[2] = molecular target: T2, cynomolgus monkey FcγRIIb extracellular domain, His-tagged (cynomolgus monkey); test: as above
T2 construct: also called cyno FcγRIIb; cynoFcγRIIb; not shown: C-terminal His-tag
T2 chain: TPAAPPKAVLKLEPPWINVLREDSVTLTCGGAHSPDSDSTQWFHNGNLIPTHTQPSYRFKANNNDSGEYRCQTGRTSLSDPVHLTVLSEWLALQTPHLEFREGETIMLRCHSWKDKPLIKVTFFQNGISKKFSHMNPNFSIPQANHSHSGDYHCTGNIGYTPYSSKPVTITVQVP
Experimental: as §1

[3] = molecular target: T3, human FcγRIIaR extracellular domain, His-tagged (human, UniProt P12318 34-217); test: as above
T3 construct: also called human FcγRIIa (type R); FcgRIIaR; not shown: C-terminal His-tag
T3 chain: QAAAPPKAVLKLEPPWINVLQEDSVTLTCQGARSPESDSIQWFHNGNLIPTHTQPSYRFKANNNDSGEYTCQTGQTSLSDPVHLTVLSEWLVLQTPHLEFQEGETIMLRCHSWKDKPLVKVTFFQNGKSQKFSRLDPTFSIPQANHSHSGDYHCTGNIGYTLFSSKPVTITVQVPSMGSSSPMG
Experimental: as §1

[4] = molecular target: T4, human FcγRIIIaV extracellular domain, His-tagged (human, UniProt P08637 17-208); test: as above
T4 construct: also called human FcγRIIIa (V158); FcgRIIIaV; not shown: C-terminal His-tag
T4 sequence (P08637 17-208 F176V): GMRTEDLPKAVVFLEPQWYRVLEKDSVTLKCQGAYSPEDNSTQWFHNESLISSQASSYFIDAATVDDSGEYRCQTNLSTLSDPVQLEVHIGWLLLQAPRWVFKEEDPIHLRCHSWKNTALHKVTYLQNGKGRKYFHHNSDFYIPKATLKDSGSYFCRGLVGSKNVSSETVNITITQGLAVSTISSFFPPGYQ
Experimental: as §1

[5] = molecular target: T5, human FcγRIIaH extracellular domain, His-tagged (human, UniProt P12318 34-217); test: as above
T5 construct: also called human FcγRIIa (type H); FcgRIIaH; not shown: C-terminal His-tag
T5 sequence: T3 chain with R134H
Experimental: as §1

[6] = molecular target: T6, cynomolgus monkey FcγRIIIaS extracellular domain, His-tagged (cynomolgus monkey, UniProt Q8SPW2 21-206 at identity 1.00)); test: as above
T6 construct: also called cyno FcγRIIIaS; FcgRIIIaS; not shown: C-terminal His-tag
T6 chain: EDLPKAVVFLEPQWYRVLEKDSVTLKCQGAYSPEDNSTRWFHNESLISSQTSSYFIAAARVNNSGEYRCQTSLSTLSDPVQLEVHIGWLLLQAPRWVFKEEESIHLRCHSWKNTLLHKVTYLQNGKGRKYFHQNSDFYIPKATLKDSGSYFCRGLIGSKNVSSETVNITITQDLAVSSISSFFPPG
Experimental: as §1

[7] = molecular target: T7, cynomolgus monkey FcγRIIa3 extracellular domain, His-tagged (cynomolgus monkey); test: as above
T7 construct: also called cyno FcγRIIa3; FcgRIIa3; not shown: C-terminal His-tag
T7 chain: T1 chain with P95T, T121A, A128S, H133P, D135N
Experimental: as §1

[8] = molecular target: T8, human FcγRIIb extracellular domain, His-tagged (human, UniProt P31994 43-217); test: as above
T8 construct: also called FcgRIIb (human); not shown: C-terminal His-tag
T8 sequence: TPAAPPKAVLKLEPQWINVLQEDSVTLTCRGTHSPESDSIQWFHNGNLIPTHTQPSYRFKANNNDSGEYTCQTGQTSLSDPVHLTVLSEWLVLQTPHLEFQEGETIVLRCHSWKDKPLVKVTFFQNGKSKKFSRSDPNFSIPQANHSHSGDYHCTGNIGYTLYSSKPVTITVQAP
Experimental: as §1

[9] = molecular target: T9, cynomolgus monkey FcγRIIa2 extracellular domain, His-tagged (cynomolgus monkey); test: as above
T9 construct: also called cyno FcγRIIa2; FcgRIIa2; not shown: C-terminal His-tag
T9 chain: T1 chain with P95T, T121A, I127K, A128S, K130N, D135N, R142Q
Experimental: as §1

[10] = molecular target: T10, Cynomolgus monkey latent myostatin (cynomolgus monkey, UniProt Q95J86 25-266; Q95J86 267-375); test: SPR 37C; KD pH 5.8 / KD pH 7.4
T10 construct: Latent form = complex of two propeptides and the mature dimer; also called Cyno latent myostatin
T10 sequence 1: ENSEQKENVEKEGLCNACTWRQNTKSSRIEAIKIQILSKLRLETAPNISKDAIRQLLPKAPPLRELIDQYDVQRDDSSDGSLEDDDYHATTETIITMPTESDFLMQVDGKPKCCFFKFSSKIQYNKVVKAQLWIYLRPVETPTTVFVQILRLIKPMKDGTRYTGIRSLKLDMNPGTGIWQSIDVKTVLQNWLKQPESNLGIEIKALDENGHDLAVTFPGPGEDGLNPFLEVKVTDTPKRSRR
T10 sequence 2: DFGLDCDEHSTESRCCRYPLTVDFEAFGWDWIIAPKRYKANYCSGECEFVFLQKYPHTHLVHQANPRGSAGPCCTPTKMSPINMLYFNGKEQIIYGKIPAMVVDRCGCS
Experimental: (§2) ProA/G (Pierce) was immobilized onto all flow cells of a CM4 chip using an amine coupling kit (GE Healthcare). All antibodies and analytes were prepared in ACES pH7.4 or pH5.8 buffer containing 20 mM ACES, 150 mM NaCl, 1.2 mM CaCl₂, 0.05% TWEEN®) 20, 0.005% NaN₃. […] Human, cyno, and mouse latent myostatin was injected at 3.125 to 50 nM prepared by two-fold serial dilution, followed by dissociation. The sensor surface was regenerated each cycle with 10 mM Glycine HCl pH1.5. Binding affinity was determined by processing and fitting the data to a 1:1 binding model using BIACORE® T200 Evaluation software, version 2.0 (GE Healthcare).

Mouse latent myostatin = molecular target: T11, Mouse latent myostatin (mouse, UniProt O08689 26-267; O08689 268-376); test: SPR (BIACORE T200) 37C, pH 7.4, antibody captured by ProA/G
T11 construct: Latent form = complex of two propeptides and the mature dimer
T11 sequence 1: T10 sequence 1 with N2G, Q5R, K6E, T19A, K25R, S26Y, K59R, V107A, E140K, N173S
T11 sequence 2: T10 sequence 2
Experimental: as §2

Human latent myostatin = molecular target: T12, Human latent myostatin (human, UniProt O14793 25-266; O14793 267-375); test: as above
T12 construct: also called human myostatin latent form
T12 sequence 1: T10 sequence 1 with A52V
T12 sequence 2: T10 sequence 2
Experimental: as §2

[11] = molecular target: T10, Cynomolgus monkey latent myostatin; test: as above
Experimental: as §2

[12] = molecular target: T10, Cynomolgus monkey latent myostatin; test: SPR (BIACORE T200) 37C, pH 5.8, antibody captured by ProA/G
Experimental: as §2

B1: M103205H795-MY449 / M103202L889-SK1 (antibody, human IgG1, kappa)
heavy: QVTLKESGPVLVKPTETLTLTCTVSGIDLSHDDISWVRQAPGKGLEWVGIISYAGSTYYASWAKGRLTISKDTSKNQVVLTMTNMDPVDTATYYCARGVPAYSHGGDLWGQGTLVTVSSASTKGPSVFPLAPSSKSTSGGTAALGCLVKDYFPEPVTVSWNSGALTSGVHTFPAVLQSSGLYSLSSVVTVPSSSLGTQTYICNVNHKPSNTKVDKKVEPKSCDKTHTCPPCPALELLTGPSVFLFPPKPKDTLMISRTPEVTCVVVDVSDEDPEVKFNWYVDGVEVHNAKTKPREEQYNSTYRVVSVLTVLHQDWLNGKEYKCKVSNKALPKPIEKTISKAKGQPREPQVYTLPPSREEMTKNQVSLTCLVKGFYPSDIAVEWESNGQPENNYKTTPPVLDSDGSFFLYSKLTVDKSRWQQGNVFSCSVMHEALHNHYTQKSLSLSP
light: DIVMTQSPATLSLSPGERATLSCTSSQSVYHANWLSWFQQKPGQPPKLLIYWASTLAYGVPSRFSGSGSGTDFTLTISSLQPEDAATYYCAGGYGGGRYAFGQGTKVEIKRTVAAPSVFIFPPSDEQLKSGTASVVCLLNNFYPREAKVQWKVDNALQSGNSQESVTEQDSKDSTYSLSSTLTLSKADYEKHKVYACEVTHQGLSSPVTKSFNRGEC
For B1, the “KD fold (SG1 = 1)” value [1] was 3.7 fold, the “KD fold (SG1 = 1)” value [2] was 7.8 fold and the “KD fold (SG1 = 1)” value [3] was 14.9 fold. For the same binder, the “KD fold (SG1 = 1)” value [4] was 0.3 fold, the “KD fold (SG1 = 1)” value [5] was 7 fold and the “KD fold (SG1 = 1)” value [6] was 0.4 fold. The “KD fold (SG1 = 1)” value [7] was 11.3 fold, the “KD fold (SG1 = 1)” value [8] was 15.9 fold and the “KD fold (SG1 = 1)” value [9] was 5.4 fold.

B2: MS_M103205H1186-SG1/M103202L889-SK1 (antibody, human IgG1, kappa, V domains shown)
VH: QVTLKESGPVLVKPTETLTLTCTVSGIDLSHDDISWVRQAPGKGLEWVGIISYAGKKYYASWAKGRLTISKDTSKNQVVLTMTNMDPVDTATYYCARGVPAYSHGGDLWGQGTLVTVSS
VL: DIVMTQSPATLSLSPGERATLSCTSSQSVYHANWLSWFQQKPGQPPKLLIYWASTLAYGVPSRFSGSGSGTDFTLTISSLQPEDAATYYCAGGYGGGRYAFGQGTKVEIKR
notes: also called MS1032LO18-SG1
With B2 the “ratio of KD at pH 5.8/pH 7.4” value [10] was 229, the Kd (Mouse latent myostatin) was 0.272 nM and the Kd (Human latent myostatin) was 0.329 nM. For the same binder, the Kd [11] was 0.354 nM and the Kd [12] was 80.9 nM.
